Experimental data published in patent US20190309066A1, “COMBINATION THERAPY FOR THE TREATMENT OF SOLID AND HEMATOLOGICAL CANCERS” (Arch Oncology, Inc., priority 2017, published 2019).
Blank lines part the entries; values can stand above or below the molecule they belong to.

Assays:
[1] = system: human red blood cells (hRBCs); experiment: Hemagglutination of washed hRBCs; type: cell-based; details: mAb concentrations 50 μg/ml down to 0.3 ng/ml or 0.3 pg/ml
Procedure: Hemagglutination of hRBCs was assessed following incubation of hRBCs with various concentrations of chimeric and humanized VLX4, VLX8, and VLX9 mAbs in vitro essentially as described by Kikuchi et al. Biochem Biophys Res. Commun (2004) 315:912-918. Blood was obtained from healthy donors, diluted (1:50) in PBS/1 mM EDTA/BSA and washed 3 times with PBS/EDTA/BSA. hRBCs were added to U-bottomed 96 well plates with equal volumes of the antibodies (75 μl of each) and incubated for 3 hrs at 37° C. and overnight at 4° C.

Jurkat cells = experiment: In vitro cell death assay (annexin V / 7-AAD); type: cell-based, human; details: 1 μg/ml soluble mAb, 24 hrs
Procedure: Induction of cell death by soluble anti-CD47 mAbs is measured in vitro (Manna et al. (2003) J. Immunol. […] (7): 3544-53, Kikuchi et al. Biochem Biophys Res. Commun. 315: 912-8, 2004), Pettersen et al. J. Immuno. 162: 7031-7040, 1999), Manna et al. Cancer Research, 64: 1026-1036, 2004). For the in vitro cell death assay, 1×10^5 transformed human T cells (Jurkat cells) were incubated with soluble humanized VLX4, VLX8, and VLX9 CD47 mAbs (1 μg/ml) for 24 hrs at 37° C. As cell death occurs, mitochondrial membrane potential is decreased, the inner leaflet of the cell membrane is inverted, exposing phosphatidylserines (PS), and propidium iodide (PI) or 7-aminoactinomycin D (7-AAD) is able to incorporate into nuclear DNA. In order to detect these cellular changes, cells were then stained with fluorescently labelled annexin V and PI or 7-aminoactinomycin D (7-AAD) (BD Biosciences) and the signal detected using an Accuri C6 flow cytometer (BD Biosciences). The increase in PS exposure is determined by measuring the percent increase in annexin V signal and the percent of dead cells by measuring the percent increase in PI or 7-AAD signal. Annexin V positive (annexin V+) or annexin V positive/7-AAD negative (annexin V^+/7-AAD^−) cells are observed in early stages of cell death and annexin V positive/7-AAD positive (annexin V^+/7-AAD^+) cells are dead cells. […]

[2] = target: T1, recombinant human CD47 (His-CD47) (Homo sapiens, UniProt Q08722); experiment: Solid-phase His-CD47 ELISA at pH 6 or pH 8; type: binding; details: pH 6.0 vs pH 8.0
T1 construct: His; purchased Acro Biosystems
Procedure: Binding by soluble anti-CD47 mAbs to immobilized recombinant human CD47 and to human CD47 expressed on cells was measured in vitro. For the in vitro binding to recombinant CD47, His-CD47 (AcroBiosystems) was adsorbed to high-binding microtiter plates overnight at 4° C. The wells were washed and varying concentrations of anti-CD47 mAbs were added to the wells in buffers with a of either pH 6 or pH 8 for 1 hour. The wells were washed and then incubated with HRP-labelled secondary antibody for 1 hour at pH 6 or pH 8 followed by addition of peroxidase substrate. The apparent affinities were calculated using non-linear fit model (Graphpad Prism).

T1 sequence (Q08722 19-323): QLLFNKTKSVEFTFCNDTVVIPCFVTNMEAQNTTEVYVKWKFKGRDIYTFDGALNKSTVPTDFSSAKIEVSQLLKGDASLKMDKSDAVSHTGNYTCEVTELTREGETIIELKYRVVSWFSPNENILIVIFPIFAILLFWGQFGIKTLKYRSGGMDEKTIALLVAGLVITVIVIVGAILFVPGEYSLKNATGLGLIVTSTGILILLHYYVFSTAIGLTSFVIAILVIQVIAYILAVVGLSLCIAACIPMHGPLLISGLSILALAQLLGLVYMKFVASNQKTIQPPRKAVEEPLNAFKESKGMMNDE

B1: VLX9 IgG2 (xi): chimeric (murine-human) anti-CD47 mAb, human IgG2 (antibody)
heavy: QVQLQQFGAELAKPGASVQMSCKASGYTFTNYWIHWVKQRPGQGLEWIGYTDPRTDYTEYNQKFKDKATLAADRSSSTAYMRLSSLTSEDSAVYYCAGGGRVGLGYWGHGSSVTVSSASTKGPSVFPLAPCSRSTSESTAALGCLVKDYFPEPVTVSWNSGALTSGVHTFPAVLQSSGLYSLSSVVTVPSSNFGTQTYTCNVDHKPSNTKVDKTVERKCCVECPPCPAPPVAGPSVFLFPPKPKDTLMISRTPEVTCVVVDVSHEDPEVQFNWYVDGVEVHNAKTKPREEQFNSTFRVVSVLTVVHQDWLNGKEYKCKVSNKGLPAPIEKTISKTKGQPREPQVYTLPPSREEMTKNQVSLTCLVKGFYPSDIAVEWESNGQPENNYKTTPPMLDSDGSFFLYSKLTVDKSRWQQGNVFSCSVMHEALHNHYTQKSLSLSPGK
light: DVFMTQTPLSLPVSLGDQASISCRSSQNIVQSNGNTYLEWYLQKPGQSPKLLIYKVFHRFSGVPDRFSGSGSGTDFTLKISRVEAEDLGVYYCFQGSHVPWTFGGGTKVEIKRTVAAPSVFIFPPSDEQLKSGTASVVCLLNNFYPREAKVQWKVDNALQSGNSQESVTEQDSKDSTYSLSSTLTLSKADYEKHKVYACEVTHQGLSSPVTKSFNRGEC
hemagglutination of hRBCs (in words) [1]: caused visible hemagglutination
PS exposure and cell death (annexin V+, annexin V+/7-AAD−, annexin V+/7-AAD+) (Jurkat cells): induced increased PS exposure and cell death

pH dependence of binding to His-CD47 [2]: did not display pH dependence
B2: VLX9 IgG (murine): murine VLX9 anti-CD47 antibody (antibody, V domains shown)
VH: QVQLQQFGAELAKPGASVQMSCKASGYTFTNYWIHWVKQRPGQGLEWIGYTDPRTDYTEYNQKFKDKATLAADRSSSTAYMRLSSLTSEDSAVYYCAGGGRVGLGYWGHGSSVTVSS
VL: DVFMTQTPLSLPVSLGDQASISCRSSQNIVQSNGNTYLEWYLQKPGQSPKLLIYKVFHRFSGVPDRFSGSGSGTDFTLKISRVEAEDLGVYYCFQGSHVPWTFGGGTKVEIK
